Consider three molecules from paper PMC4176372, “The interplay of primer-template DNA phosphorylation status and single-stranded DNA binding proteins in directing clamp loaders to the appropriate polarity of DNA” (Nucleic Acids Research, 2014).

Test [1] deals with replication protein A (RPA) (UniProt P22336).
The target is the same in test [2]. This is another data set of the same source.
The target of test [3] is T1, Saccharomyces cerevisiae clamp loader replication factor C (RFC) with a full-length Rfc1 subunit (S. cerevisiae, UniProt P38630 1-861; P40348 1-353; P38629 1-340; P40339 1-323; P38251 1-354).
T1 construct: Rfc1 subunit of S. cerevisiae RFC; Rfc2 subunit of S. cerevisiae RFC; Rfc3 subunit of S. cerevisiae RFC; Rfc4 subunit of S. cerevisiae RFC; Rfc5 subunit of S. cerevisiae RFC; Pentamer of Rfc1-5; source: E. coli BL21 (DE3) Rosetta, expressed from a single plasmid, purified (HighTrap SP, HighTrap heparin, MonoQ); copies: 1 + 1 + 1 + 1 + 1
In words: stopped-flow fluorescence (PCNA-AF488_2 clamp closing); sequential mixing: 20 nM RFC, 20 nM PCNA-AF488_2 and 0.5 mM ATP incubated 4 s, then mixed with 40 nM 5′DNA pre-bound to 400 nM RPA, ATP and 200 nM unlabeled PCNA; 20°C; 30 mM HEPES pH 7.5, 150 mM NaCl, 10 mM MgCl2, 10% glycerol, 100 mM maltose. To be noted: both partners purified.

The target of test [4] is T1, Saccharomyces cerevisiae clamp loader …. In words: stopped-flow fluorescence (PCNA-MDCC release from RFC); PCNA labeled with MDCC on the surface to which RFC binds; fluorescence of the RFC·PCNA-MDCC complex is greater than that of unbound PCNA-MDCC; release followed after mixing with DNA substrates with and without bound SSB/RPA; 20°C; single exponential fit. To be noted: both partners purified.

Sequence of replication protein A (RPA) (P22336 whole entry, chain 1 of 3): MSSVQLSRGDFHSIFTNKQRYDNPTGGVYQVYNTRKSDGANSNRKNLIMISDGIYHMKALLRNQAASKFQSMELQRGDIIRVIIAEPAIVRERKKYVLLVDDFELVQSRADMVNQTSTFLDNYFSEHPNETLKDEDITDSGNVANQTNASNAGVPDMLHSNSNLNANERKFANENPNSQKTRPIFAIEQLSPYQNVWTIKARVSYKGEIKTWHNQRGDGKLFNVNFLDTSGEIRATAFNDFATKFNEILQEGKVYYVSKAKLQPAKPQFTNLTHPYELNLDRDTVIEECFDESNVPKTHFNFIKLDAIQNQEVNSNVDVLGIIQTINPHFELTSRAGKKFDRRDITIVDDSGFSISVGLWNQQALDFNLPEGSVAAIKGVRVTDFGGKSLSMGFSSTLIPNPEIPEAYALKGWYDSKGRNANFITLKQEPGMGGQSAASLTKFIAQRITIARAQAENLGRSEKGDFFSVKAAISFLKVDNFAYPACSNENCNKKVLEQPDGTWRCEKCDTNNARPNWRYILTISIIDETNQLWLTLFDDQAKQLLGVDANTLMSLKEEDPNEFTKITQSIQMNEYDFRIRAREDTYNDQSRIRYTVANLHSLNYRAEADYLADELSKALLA
Sequence of replication protein A (RPA) (P26754 whole entry, chain 2 of 3, further chain): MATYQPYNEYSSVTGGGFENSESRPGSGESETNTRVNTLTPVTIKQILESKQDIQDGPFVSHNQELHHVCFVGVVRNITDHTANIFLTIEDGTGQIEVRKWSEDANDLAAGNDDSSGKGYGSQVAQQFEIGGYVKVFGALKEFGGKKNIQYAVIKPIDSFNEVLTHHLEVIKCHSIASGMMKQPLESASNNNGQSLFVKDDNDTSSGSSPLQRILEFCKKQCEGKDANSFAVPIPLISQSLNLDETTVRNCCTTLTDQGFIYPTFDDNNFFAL
Sequence of replication protein A (RPA) (P26755 whole entry, chain 3 of 3, further chain): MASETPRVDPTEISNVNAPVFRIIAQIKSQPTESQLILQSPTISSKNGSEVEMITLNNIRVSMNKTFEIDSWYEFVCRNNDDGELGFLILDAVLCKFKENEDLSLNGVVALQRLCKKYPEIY

Consider “Saccharomyces cerevisiae clamp loader replication factor C (RFC) with a full-length Rfc1 subunit (from UniProt P38630 1-861; P40348 1-353; P38629 1-340; P40339 1-323; P38251 1-354) (complex)”, for which, in test [1], the k obs1 of PCNA-AF488 2 closing by RFC on 3′DNA·RPA was 4.4 s⁻¹ and the kobs of PCNA-AF488 2 closing by RFC on phosphorylated 5′DNA·RPA was determined as 0.09 s⁻¹. In test [2], this molecule yielded a k obs1 of PCNA closing by RFC on 3′DNA with the non-cognate SSB substituted for RPA of 4.6 s⁻¹ and a rate of PCNA closing by RFC on 5′DNA with the non-cognate SSB substituted for RPA of 0.45 s⁻¹.

B1: PCNA-AF488_(2) (S. cerevisiae PCNA, C22/62/81S, I111C, I181C, labeled with AF488) (natural protein, UniProt P15873 1-258, looked up)
chain: MLEAKFEEASLFKRIIDGFKDSVQLVNFQCKEDGIIAQAVDDSRVLLVSLEIGVEAFQEYRSDHPVTLGMDLTSLSKILRSGNNTDTLTLIADNTPDSIILLFEDTKKDRCAEYSLKLMDIDADFLKIEELQYDSTLSLPSSEFSKIVRDLSQLSDSINIMITKETIKFVADGDIGSGSVCIKPFVDMEHPETSIKLEMDQPVDLTFGAKYLLDIIKGSSLSDRVGIRLSSEAPALFQFDLKSGFLQFFLAPKFNDEE
modifications: AF488 on the cysteines introduced at positions 111 and 181
notes: proliferating cell nuclear antigen (PCNA), the S. cerevisiae sliding clamp; also called fluorescent PCNA; source: purified as described previously
As for B1, the binding result in test [3] is “binds”.

B2: PCNA-MDCC (S. cerevisiae PCNA, C22/62/81S, S43C, labeled with MDCC) (natural protein, UniProt P15873 1-258, looked up)
chain: MLEAKFEEASLFKRIIDGFKDSVQLVNFQCKEDGIIAQAVDDCRVLLVSLEIGVEAFQEYRSDHPVTLGMDLTSLSKILRSGNNTDTLTLIADNTPDSIILLFEDTKKDRIAEYSLKLMDIDADFLKIEELQYDSTLSLPSSEFSKIVRDLSQLSDSINIMITKETIKFVADGDIGSGSVIIKPFVDMEHPETSIKLEMDQPVDLTFGAKYLLDIIKGSSLSDRVGIRLSSEAPALFQFDLKSGFLQFFLAPKFNDEE
modifications: MDCC on the cysteine introduced at position 43
notes: proliferating cell nuclear antigen (PCNA), the S. cerevisiae sliding clamp; source: purified as described previously
Regarding B2, in test [4], the binding result was “binds”.
